Experiments:
[1] = molecular target: small subunit of L.donovani topoisomerase I (LdTOP1S) (Leishmania donovani); experiment: fluorescence polarisation
[2] = molecular target: C-terminal fragment of human topoisomerase I (HTOP14) (human) (UniProt P11387); experiment: fluorescence polarisation
[3] = molecular target: C-terminal fragment of human topoisomerase I (HTOP14) (human) (UniProt P11387); experiment: pull-down
LdTOP1L-fus-HTOP14 = LdTOP1L-fus-HTOP14 (Leishmania donovani / human chimera, UniProt A0A3Q8IHS4 1-635+=EF+P11387:636-765, internal_change); experiment: SDS trapping of covalent complex

| Molecule | Kd [1] | Kd [2] | stoichiometry N [3] | binding signal (LdTOP1L-fus-HTOP14) |
| --- | --- | --- | --- | --- |
| large subunit of L.donovani topoisomerase I (LdTOP1L) (natural protein) | 59.8 nM | 162 nM | 1 |  |
| 25mer duplex ML25/MC25 (dsDNA) DNA 1: GAAAAAAGACTTAGAAAAATTTTTA DNA 2: TAAAAATTTTTCTAAGTCTTTTTTC |  |  |  | ~2 fold more covalent complex than LdTOP1L/S |
